Measurements from patent publication US20230135471A1 (INTEGRATED DNA TECHNOLOGIES, published 2023).

How the values were obtained:
[1] = molecular target: MBP tagged 53BP1 fragment (a.a. 1484-1603); assay: BLI, fold change Ka of Ubv/Ka of CM1
[2] = molecular target: MBP tagged 53BP1 fragment (a.a. 1484-1603); assay: BLI, KA (M-1), log axis

Row | Binder | binding result [1] | binding result [2]
1 | CM149 (designed binder) Ubv: MHHHHHHGGSGYLIFVRMLTGKMIELEVMPSDTIEVIKAKIQDHEGIPLDEQHLTFQGTLLDDGYTLGDYNLLIDPKKMPLLRMQ | binds | 
2 | CM149-DM (designed binder, also called CM210) Ubv: MHHHHHHGGSGYLIFVRMLTGKMIELEVMPSDTIEVIKAKIQDHEGIPLDEQHLTFQGTLLDDGYTLGDYNLLIDPKKMLVLRMQ |  | binds
